# Source: article PMC4411124
# Experiments:
# [1] = target: T1, SoxR (Stenotrophomonas maltophilia K279a) (UniProt B2FRT7); assay: competition
# T1 sequence: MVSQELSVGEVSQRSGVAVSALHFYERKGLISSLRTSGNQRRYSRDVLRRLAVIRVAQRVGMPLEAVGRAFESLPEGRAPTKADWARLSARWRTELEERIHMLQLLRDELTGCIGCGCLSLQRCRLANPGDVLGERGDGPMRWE
# [2] = target: T1, SoxR (Stenotrophomonas maltophilia K279a); assay: EMSA
Sequence,binding [1],binding [2]
"GAGGGTCGGGGTCATACGGGTCAGATGCGGGCCGCGCTTGTCAACCGACGGCGAAGATAGCAGCATGACACCTCAACTGCAGTTGAGGTCAAGCAATGGTGTCCCAGGAACTGAGCGTTGGCGAAGTCTCCCAGCGCAGTGGCGTGGCGGTTTCCGCGCTGCACTTCTACGAGCGCAAGGGGCTGATCAGCAGCCTGCGCACTTCGGGTAACCAGCGCCGCTACAGCCGCGACGTGCTGCGCCGGCTGGCGGTGATCCGC (double strand) [mfsA-soxR promoter fragment, 258 bp, wild type]",binds,binds
"GCGGATCACCGCCAGCCGGCGCAGCACGTCGCGGCTGTAGCGGCGCTGGTTACCCGAAGTGCGCAGGCTGCTGATCAGCCCCTTGCGCTCGTAGAAGTGCAGCGCGGAAACCGCCACGCCACTGCGCTGGGAGACTTCGCCAACGCTCAGTTCCTGGGACACCATTGCTTGAAAGACCAGTACTGTGAGGTGTCATGCTGCTATCTTCGCCGTCGGTTGACAAGCGCGGCCCGCATCTGACCCGTATGACCCCGACCCTC (double strand) [mfsA-soxR promoter fragment, 258 bp, mutated SoxR box]",,no binding
